We go through one molecule from paper doi:10.1101/2025.01.01.631016, “A tool to dissect heterotypic determinants of homotypic protein phase behavior” (bioRxiv, 2025).

For this test, the target named is T1, Avitag-His-TEV-mEos3.1 (Lobophyllia hemprichii EosFP, …, point mutant).
T1 construct: also called purified mEos3.1; pET-Biotin-His6-mEos3.1; source: E. coli BL21 (DE3), co-expressed with BirA, purified (Ni-NTA, anion exchange)
T1 chain: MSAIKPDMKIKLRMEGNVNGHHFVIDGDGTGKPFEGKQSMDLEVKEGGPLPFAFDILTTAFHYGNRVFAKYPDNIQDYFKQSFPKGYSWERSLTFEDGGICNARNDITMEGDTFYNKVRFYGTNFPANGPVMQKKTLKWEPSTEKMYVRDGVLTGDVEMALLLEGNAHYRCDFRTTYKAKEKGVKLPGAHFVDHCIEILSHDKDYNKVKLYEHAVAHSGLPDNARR
The test can be described thus: BLI. The conditions noted are these: both partners purified.

B1: tag free mEosNb (VHH)
VHH: QVQLQESGGGLVQAGGSLRLSCAASGNISQLVYMGWYRQAPGKERELVAGITHGGITYYADSVKGRFTISRDNAKNTVYLQMNSLKPEDTAVYYCAAFQWRSDDVGYLNLGPLEYWGQGTQVTVSS
notes: also called mEos3Nb; nanobody against mEos3; not shown: Avitag, C-terminal, cleaved; His, C-terminal, cleaved
As to B1, the Kd stood at 76.8 nM.

One may read the Kd as the concentration at which binding is half-saturated.
